From US20080206254A1 (LIFE SCIENCES RESEARCH PARTNERS VZW, published 2008)
Positions count from the first letter of the chain named.

Tests used:
[1] = target: human Factor VIII (FVIII) (human) (UniProt P00451); assay: cell-based or functional assay
[2] = target: human Factor VIII (FVIII) (human) (UniProt P00451); assay: SPR (BIAcore), BOIIB2 immobilised on a CM5 chip, FVIII in HBS as analyte
[3] = target: T1, A2 domain residues 379-546 of FVIII with mutation R489A (human, UniProt P00451 398-565, 35S-methionine labelled); assay: immunoprecipitation of 35S-labelled polypeptide on BOIIB2-Protein A Sepharose
T1 construct: Read as one of four single mutants; see the note of m4; not shown: cmyc (9E10) tag
T1 sequence: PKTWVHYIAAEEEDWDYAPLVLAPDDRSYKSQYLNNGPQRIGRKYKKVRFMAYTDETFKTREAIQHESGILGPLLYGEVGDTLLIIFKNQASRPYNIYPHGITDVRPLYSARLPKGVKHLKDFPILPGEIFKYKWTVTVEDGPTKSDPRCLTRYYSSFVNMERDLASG
Method: (§1) For fragments of FVIII of less than 15 amino acids a tag sequence was added including ubiquitin and/or T7 for recognition by specific anti-tag antibodies, together with a complementary sequence of cysteines for S labeling. Polypeptide encoding FVIII fragments were produced in TNT coupled Reticulocyte Lysate Systems (Promega) according to manufacturer's instructions. Immunoprecipitation of transcribed genes was carried out as follows. Dilutions of samples containing specific antibodies were mixed to 40 μl of protein A Sepharose (Pharmacia) in 500 μl of an appropriate buffer and the mixture gently rocked for 1 hour at 4° C. Unbound antibodies are eliminated by a series of centrifugation and washings. The complex of antibody-protein A Sepharose is resuspended in 300 μl of buffer supplemented by 3 μl of in-vitro L-(³⁵S) methionine-labeled FVIII polypeptides for an incubation at 4° C. for 2 hours. Bound antigen/antibody complexes are eluted from the beads by boiling for 3 minutes in 30 μl of denaturing sample buffer and the radioactivity counted. A second aliquot is analyzed by SDS-PAGE and visualized by autoradiography. […] This system includes a combined transcription-translation provided by rabbit reticulocytes. […] Polypeptides are radiolabeled by addition of ³⁵S-methionine in the reaction mixture. BOIIB2 antibody is incubated with a Protein-A Sepharose, washed and resuspended before addition of one of the radiolabeled polypeptides. The suspension is incubated for 90 minutes at room temperature, washed and the labeled polypeptide eluted from Sepharose beads by addition of a sodium-dodecylsulfate containing buffer.

[4] = target: T2, A2 domain residues 379-546 of FVIII with mutation R484A (human, UniProt P00451 398-565, 35S-methionine labelled); assay: as above
T2 construct: the text lists R484A; Y487A; not shown: cmyc (9E10) tag
T2 sequence: T1 sequence with R106A, A111R
Method: as §1

[5] = target: T3, A2 domain residues 379-546 of FVIII with mutation P492A (human, UniProt P00451 398-565, 35S-methionine labelled); assay: as above
T3 construct: Read as one of four single mutants; see the note of m4; not shown: cmyc (9E10) tag
T3 sequence: T1 sequence with A111R, P114A
Method: as §1

[6] = target: T4, A2 domain residues 379-546 of FVIII with mutation Y487A (human, UniProt P00451 398-565, 35S-methionine labelled); assay: as above
T4 construct: Read as one of four single mutants; see the note of m4; not shown: cmyc (9E10) tag
T4 sequence: T1 sequence with Y109A, A111R
Method: as §1

human Factor VIII (FVIII) (human), sequence (P00451 20-2351): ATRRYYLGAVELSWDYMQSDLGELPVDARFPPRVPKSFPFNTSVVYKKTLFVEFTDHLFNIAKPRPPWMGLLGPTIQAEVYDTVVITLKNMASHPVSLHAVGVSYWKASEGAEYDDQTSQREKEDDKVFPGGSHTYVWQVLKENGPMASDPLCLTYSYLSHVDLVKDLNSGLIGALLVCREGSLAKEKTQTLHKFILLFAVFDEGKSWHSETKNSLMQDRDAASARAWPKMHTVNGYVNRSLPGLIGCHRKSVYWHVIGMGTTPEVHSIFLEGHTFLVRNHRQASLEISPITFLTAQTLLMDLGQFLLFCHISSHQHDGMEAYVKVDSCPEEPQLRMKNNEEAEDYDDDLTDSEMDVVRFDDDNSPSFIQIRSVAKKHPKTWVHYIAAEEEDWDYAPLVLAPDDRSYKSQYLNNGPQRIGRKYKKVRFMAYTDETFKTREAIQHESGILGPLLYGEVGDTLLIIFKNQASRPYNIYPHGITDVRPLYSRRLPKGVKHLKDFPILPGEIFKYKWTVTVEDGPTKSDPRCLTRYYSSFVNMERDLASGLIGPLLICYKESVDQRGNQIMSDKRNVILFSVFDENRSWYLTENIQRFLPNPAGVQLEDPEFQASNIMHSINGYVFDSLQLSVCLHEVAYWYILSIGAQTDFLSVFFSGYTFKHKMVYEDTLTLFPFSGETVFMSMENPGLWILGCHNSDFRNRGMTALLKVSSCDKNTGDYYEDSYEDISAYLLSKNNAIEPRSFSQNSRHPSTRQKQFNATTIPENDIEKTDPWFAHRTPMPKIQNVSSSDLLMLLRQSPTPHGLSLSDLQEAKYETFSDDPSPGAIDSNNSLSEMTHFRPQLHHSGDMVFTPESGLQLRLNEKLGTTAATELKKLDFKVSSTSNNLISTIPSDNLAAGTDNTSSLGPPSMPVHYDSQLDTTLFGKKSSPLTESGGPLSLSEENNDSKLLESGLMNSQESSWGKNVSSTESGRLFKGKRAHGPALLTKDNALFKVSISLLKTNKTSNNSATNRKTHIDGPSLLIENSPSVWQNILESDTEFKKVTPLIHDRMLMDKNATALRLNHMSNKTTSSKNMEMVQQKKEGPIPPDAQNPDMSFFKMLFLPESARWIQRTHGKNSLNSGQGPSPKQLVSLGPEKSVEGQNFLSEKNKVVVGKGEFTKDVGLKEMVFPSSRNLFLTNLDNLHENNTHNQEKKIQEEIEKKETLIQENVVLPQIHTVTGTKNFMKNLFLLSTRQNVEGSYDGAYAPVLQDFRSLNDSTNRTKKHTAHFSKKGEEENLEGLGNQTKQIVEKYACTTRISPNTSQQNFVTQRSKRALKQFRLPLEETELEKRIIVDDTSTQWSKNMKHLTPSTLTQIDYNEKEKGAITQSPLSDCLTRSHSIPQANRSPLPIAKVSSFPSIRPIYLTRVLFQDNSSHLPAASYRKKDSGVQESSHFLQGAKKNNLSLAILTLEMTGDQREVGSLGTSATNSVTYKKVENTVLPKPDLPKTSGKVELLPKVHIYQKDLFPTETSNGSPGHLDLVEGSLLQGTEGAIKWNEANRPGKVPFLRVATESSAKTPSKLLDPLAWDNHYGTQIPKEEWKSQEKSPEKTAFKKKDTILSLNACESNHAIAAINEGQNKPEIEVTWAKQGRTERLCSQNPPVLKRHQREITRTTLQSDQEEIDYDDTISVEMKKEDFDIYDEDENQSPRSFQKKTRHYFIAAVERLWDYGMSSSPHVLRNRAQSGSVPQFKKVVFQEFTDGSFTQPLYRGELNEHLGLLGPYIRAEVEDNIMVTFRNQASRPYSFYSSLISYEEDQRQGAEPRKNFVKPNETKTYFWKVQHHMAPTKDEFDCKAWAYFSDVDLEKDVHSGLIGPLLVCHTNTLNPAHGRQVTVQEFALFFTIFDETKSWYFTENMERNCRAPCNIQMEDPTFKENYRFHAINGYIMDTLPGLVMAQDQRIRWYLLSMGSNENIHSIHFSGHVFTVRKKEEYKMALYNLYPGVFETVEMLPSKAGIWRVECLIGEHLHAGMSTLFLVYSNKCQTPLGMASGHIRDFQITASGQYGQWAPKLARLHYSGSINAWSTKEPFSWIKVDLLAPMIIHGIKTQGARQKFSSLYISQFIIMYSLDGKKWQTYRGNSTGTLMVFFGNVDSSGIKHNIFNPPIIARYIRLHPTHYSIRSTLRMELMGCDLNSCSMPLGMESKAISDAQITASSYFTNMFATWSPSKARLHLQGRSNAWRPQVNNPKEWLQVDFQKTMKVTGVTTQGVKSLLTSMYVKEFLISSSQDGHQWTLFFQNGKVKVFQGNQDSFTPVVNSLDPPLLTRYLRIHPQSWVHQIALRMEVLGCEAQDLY

- Percentage of inhibition of FVIII in a chromogenic assay (thrombin-activated FVIII as cofactor of factor IXa in the conversion of factor X to factor Xa) [1]: 99%
- koff [2]: 1e-08 s⁻¹
- binding result [3]: no binding
- binding result [4]: no binding
- binding result [5]: no binding
- binding result [6]: no binding
B1: human monoclonal antibody BOIIB2, produced by the cell line deposited under accession number LMBP 6422CB at the BCCM (antibody, V domains shown)
VH: QVQLQESGPGLVKPSETLSLTCTVSGDSISDYYWSWIRQPPGKGLEWIGYFFYSGGSNYNPSLKSRVTMSVDTSKNQFSLKLGSVTAADTAVYYCARSQLRYYLDVWGQGTTVTVSS
VL: EIVLTQSPGTLSLSPGERATLSCRASQSVDSNYLAWYQQKPGQAPRVVIYGASNRATGIPDRFSGSGSGTEFTLTISRLDPEDFAVYYCQQYGSFFGQGTRLEIK
notes: VH4 (DP-71)/JH6c, VkappaIII/Jkappa5; also called BIIIB2
